# Source: the Immune Epitope Database (IEDB)
# Columns and labels:
# [1] = target: HLA-A*03:01; experiment: IEDB peptide-MHC binding, purified MHC/competitive/fluorescence; filed as Kd, often an IC50 or EC50 that approximates it; ≥ and ≤ were set here for values at or beyond the usual limits of such assays; conditions: source organism: Shigella flexneri 5 str. 8401
# [2] = target: HLA-A*01:01; experiment: as above
# [3] = target: HLA-B*51:01; experiment: as above; conditions: source organism: Shigella flexneri 5 str. 8401
# [4] = target: HLA-B*57:01; experiment: as above; conditions: source organism: Shigella flexneri 5 str. 8401
# [5] = target: HLA-A*02:01; experiment: as above; conditions: source organism: Shigella flexneri 5 str. 8401
# [6] = target: HLA-A*30:01; experiment: as above; conditions: source organism: Shigella flexneri 5 str. 8401
# [7] = target: HLA-A*30:02; experiment: as above
# [8] = target: HLA-A*02:19; experiment: as above; conditions: source organism: Shigella flexneri 5 str. 8401
# [9] = target: HLA-A*26:01; experiment: as above; conditions: source organism: Shigella flexneri 5 str. 8401
# [10] = target: HLA-B*53:01; experiment: as above
# [11] = target: HLA-B*14:02; experiment: as above; conditions: source organism: Shigella flexneri 5 str. 8401
# [12] = target: HLA-A*68:02; experiment: as above; conditions: source organism: Shigella flexneri 5 str. 8401
# [13] = target: HLA-B*46:01; experiment: as above; conditions: source organism: Shigella flexneri 5 str. 8401
# [14] = target: HLA-A*11:01; experiment: as above
# [15] = target: HLA-B*08:01; experiment: as above
# [16] = target: HLA-B*58:01; experiment: as above
# [17] = target: HLA-A*29:02; experiment: as above; conditions: source organism: Shigella flexneri 5 str. 8401
# [18] = target: HLA-B*44:02; experiment: as above
# [19] = target: HLA-A*66:01; experiment: as above; conditions: source organism: Shigella flexneri 5 str. 8401
# [20] = target: HLA-B*27:05; experiment: as above; conditions: source organism: Shigella flexneri 5 str. 8401
# [21] = target: HLA-B*15:01; experiment: as above; conditions: source organism: Shigella flexneri 5 str. 8401
# [22] = target: HLA-B*40:01; experiment: as above
# [23] = target: HLA-B*07:02; experiment: as above
# [24] = target: HLA-A*02:03; experiment: as above; conditions: source organism: Shigella flexneri 5 str. 8401
# [25] = target: HLA-B*15:17; experiment: as above; conditions: source organism: Shigella flexneri 5 str. 8401
# [26] = target: HLA-B*27:03; experiment: as above; conditions: source organism: Shigella flexneri 5 str. 8401
# [27] = target: HLA-B*18:01; experiment: as above; conditions: source organism: Shigella flexneri 5 str. 8401
# [28] = target: HLA-B*51:01; experiment: IEDB peptide-MHC binding, purified MHC/direct/fluorescence; filed as Kd, often an IC50 or EC50 that approximates it; ≥ and ≤ were set here for values at or beyond the usual limits of such assays; conditions: source organism: Burkholderia mallei ATCC 23344
# [29] = target: HLA-B*57:01; experiment: as above; conditions: source organism: Burkholderia mallei ATCC 23344
# [30] = target: HLA-B*14:02; experiment: as above; conditions: source organism: Burkholderia mallei ATCC 23344
# [31] = target: HLA-A*68:02; experiment: as above; conditions: source organism: Burkholderia mallei ATCC 23344
# [32] = target: HLA-B*46:01; experiment: as above; conditions: source organism: Burkholderia mallei ATCC 23344
# [33] = target: HLA-A*29:02; experiment: as above; conditions: source organism: Burkholderia mallei ATCC 23344
# [34] = target: HLA-B*39:01; experiment: as above; conditions: source organism: Burkholderia mallei ATCC 23344
# [35] = target: HLA-B*15:01; experiment: as above; conditions: source organism: Burkholderia mallei ATCC 23344
# [36] = target: HLA-A*24:03; experiment: as above; conditions: source organism: Burkholderia mallei ATCC 23344
# [37] = target: HLA-B*27:03; experiment: as above; conditions: source organism: Burkholderia mallei ATCC 23344
# [38] = target: HLA-B*18:01; experiment: as above; conditions: source organism: Burkholderia mallei ATCC 23344
# [39] = target: HLA-B*45:06; experiment: IEDB peptide-MHC binding, purified MHC/competitive/fluorescence; filed as Kd, often an IC50 or EC50 that approximates it; ≥ and ≤ were set here for values at or beyond the usual limits of such assays; conditions: source organism: Burkholderia mallei SAVP1
# [40] = target: HLA-B*83:01; experiment: as above; conditions: source organism: Burkholderia mallei SAVP1
# [41] = target: HLA-B*15:42; experiment: as above; conditions: source organism: Burkholderia mallei SAVP1
# [42] = source organism: Shigella flexneri 5 str. 8401
# [43] = source organism: Burkholderia mallei SAVP1
sequence,measurement,setting,value
FGALFMWLL,Kd,[1],≥ 20 µM
same,Kd,[2]; [42],≥ 5 µM
same,Kd,[3],≥ 20 µM
same,Kd,[4],≥ 20 µM
same,Kd,[5],≥ 20 µM
same,Kd,[6],≥ 5 µM
same,Kd,[7]; [42],≥ 5 µM
same,Kd,[8],≥ 20 µM
same,Kd,[9],≥ 20 µM
same,Kd,[10]; [42],≥ 5 µM
same,Kd,[11],≥ 5 µM
same,Kd,[12],0.741 µM
same,Kd,[13],≥ 20 µM
same,Kd,[14]; [42],≥ 5 µM
same,Kd,[15]; [42],≥ 5 µM
same,Kd,[16]; [42],≥ 5 µM
same,Kd,[17],0.138 µM
same,Kd,[18]; [42],≥ 5 µM
same,Kd,[19],≥ 5 µM
same,Kd,[20],≥ 5 µM
same,Kd,[21],≥ 20 µM
same,Kd,[22]; [42],≥ 5 µM
same,Kd,[23]; [42],≥ 5 µM
same,Kd,[24],≥ 20 µM
same,Kd,[25],≥ 20 µM
same,Kd,[26],≥ 20 µM
same,Kd,[27],≥ 20 µM
MVFGRFSFA,Kd,[28],≥ 20 µM
same,Kd,[29],≥ 20 µM
same,Kd,[30],1.18 µM
same,Kd,[31],≤ 0.001 µM
same,Kd,[32],≥ 20 µM
same,Kd,[33],0.192 µM
same,Kd,[34],≥ 20 µM
same,Kd,[35],≥ 20 µM
same,Kd,[36],≥ 20 µM
same,Kd,[37],≥ 20 µM
same,Kd,[38],≥ 20 µM
same,Kd,[2]; [43],≥ 5 µM
same,Kd,[39],≥ 5 µM
same,Kd,[7]; [43],≥ 20 µM
same,Kd,[10]; [43],≥ 5 µM
same,Kd,[14]; [43],1.5 µM
same,Kd,[15]; [43],≥ 5 µM
same,Kd,[16]; [43],≥ 5 µM
same,Kd,[18]; [43],≥ 5 µM
same,Kd,[40],≥ 5 µM
same,Kd,[22]; [43],≥ 5 µM
same,Kd,[23]; [43],≥ 5 µM
same,Kd,[41],≥ 5 µM
